# Results as given in patent publication US20190359686A1 (INNOVATIVE TECHNOLOGIES IN BIOLOGICAL SYSTEMS SL, published 2019).
# Where no end group is shown, it is not given here.
# T1: F2R like trypsin receptor 1 (PAR2) (UniProt P55085 37-397)
# T1 sequence (looked up): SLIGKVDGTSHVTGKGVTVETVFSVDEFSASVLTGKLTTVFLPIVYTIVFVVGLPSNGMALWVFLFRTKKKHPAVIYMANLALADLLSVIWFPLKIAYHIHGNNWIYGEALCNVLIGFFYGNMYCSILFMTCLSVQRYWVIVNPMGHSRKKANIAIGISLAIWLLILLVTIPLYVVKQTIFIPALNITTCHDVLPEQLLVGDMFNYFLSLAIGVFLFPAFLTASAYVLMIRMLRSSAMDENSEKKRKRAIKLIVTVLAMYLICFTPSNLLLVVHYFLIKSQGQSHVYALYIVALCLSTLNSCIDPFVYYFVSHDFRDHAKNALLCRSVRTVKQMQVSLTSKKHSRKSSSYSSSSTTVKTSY
# Molecular target: T1, F2R like trypsin receptor 1 (PAR2)
# Test: cell-based or functional assay
Binder,EC50 SLIGRL-NH2 calcium assay,EC50 SLIGRL-NH2 ß-Arrestin assay,EC50 SLIGKV calcium assay,EC50 SLIGKV ß-Arrestin assay
SLIGRL-NH2 [SLIGRL-NH2],4.06 µM,12.7 µM,–,–
SLIGKV,–,–,1.67 µM,4.83 µM
